Source: paper PMC4840321

B1: tetherin/BST-2/CD317/HM1.24: N65A (protein)
parent chain: MASTSYDYCRVPMEDGDKRCKLLLGIGILVLLIIVILGVPLIIFTIKANSEACRDGLRAVMECRNVTHLLQQELTEAQKGFQDVEAQAATCNHTVMALMASLDAEKAQGQKKVEELEGEITTLNHKLQDASAEVERLRRENQVLSVRIADKKYYPSSQDSSSAAAPQLLIVLLGLSALLQ
B2: tetherin/BST-2/CD317/HM1.24: N92A (protein)
parent chain: B1 parent chain
B3: tetherin/BST-2/CD317/HM1.24: kifunensine (protein)
parent chain: B1 parent chain
B4: tetherin/BST-2/CD317/HM1.24: NN-AA (protein)
parent chain: B1 parent chain

Legend:
[1] = western blot, SGTA+Vpu-induced rise of 23-kDa species; settings: glycan lost; control: wild type
[2] = western blot, 23-kDa tetherin level ± SGTA and Vpu; settings: glycan changed form; control: untreated
[3] = cytosol/membrane fractionation ± SGTA and Vpu, anti-HA blot; settings: glycan lost; control: wild type 23-kDa species

Protein | expression_or_secretion [1] | expression_or_secretion [2] | localisation_or_trafficking [3]
B1 | no change |  | 
B2 | no change |  | 
B3 |  | no change | 
B4 | abolishes |  | no change
